# Data: the nanobody polyreactivity screen of Harvey et al. (2022)
# Experiment: yeast display, Sf9 membrane polyspecificity reagent, FACS + sequencing; frameworks hold sequencing errors
# Outline: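 In a synthetic yeast display library (Saccharomyces cerevisiae BJ5465), nanobody expression was induced with galactose for 36–48 hours. FACS gates were set low and high (top ~1%) using anti-HA fluorescence for expression and streptavidin fluorescence for binding of the Sf9 membrane reagent. Each polyreactivity label is drawn from the gate of origin.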
row,Sequence,polyreactivity (PSR sort gate)
1,QVQLVESGGGLVQAGGSLRLSCAASGRTFDWYAMGLYRQAPGKERELVAAISWSGGSTYYADSVKGRFTISRDNAKNTVYLQMNSLKPEDTAVYYCATDSYTEQSWVAEGYSGQGTQVTVSS,low polyreactivity
2,QVQLVESGGGLVQAGGSLRLSCAASGRTFDWYVMGWYRQAPGKERELVASIPGTGSTYYADSVKGRFTISRDNAKNTVYLQMNSLKPEDTAVYYCNVAWIWGKYDYWGQGTQVTVSS,high polyreactivity
3,QVQLVESGGGLVQAGGSLRLSCAASGRTFDYNAMGWYRQAPGKERELFAAISQSGGRTYYADSVKGRFTISRDNAKNTVYLQMYSLKPVDTAVYYCAAEAYGNRDYWGQGTQVTVSS,low polyreactivity
4,QVQLVESGGGLVQAGGSLRLSCAASGRTFDYYAMGWYRQAPGKERELVAAITLSAGRTYYADSVKGRFTISRDNAKNTVYLQMNSLKPEDTAVYYCAARFRRLQRFYYWGQGTQVTVSS,high polyreactivity
5,QVQLVESGGGLVQAGGSLRLSCAASGRTFDYYAMGWYRQAPRKERELVAAISSGGSTNYADSVKGRFTISRDNAKNTVYLQMNSLKPEATAVYYCAVSGIDDVKYDYWGQGTQVTVSS,low polyreactivity
6,QVQLVESGGGLVQAGGSLRLSCAASGRTFDYYTMGWYRQAPGKERELVAAISWSGSTTYYADSVKGRFTISRDNAKNTVSLQMNSLKPEDTAVYYCAKSYRFPSVGPPGELDYWGQGTQVTVSS,high polyreactivity
7,QVQLVESGGGLVQAGGSLRLSCAASGRTFEGNAMGWDRQAPGKERELVAALTYPGGDTHYADSVKGRCTISRDNPKNTVYLQMTSLKPEDTAGYYCAADWGWPHTDSMDYWGQGTQVTVSS,low polyreactivity
8,QVQLVESGGGLVQAGGSLRLSCAASGRTFEGNAMGWYRQAPGKERELVAAISGSGGRTYYADSVKGRFTISRDNAKNTVYLQMNSLKPEDTAVYYAKLYSVYNPWRFNYWGQGTQVTVSS,high polyreactivity
9,QVQLVESGGGLVQAGGSLRLSCAASGRTFEGYTMGWYRQAPGKERELVAAITWRGTSTYYADSVKGRFTISRDNAKNTVYLQMNSLKPEDTAVYYCNKVGWYHNYYYWGQGTQVTVSS,high polyreactivity
10,QVQLVESGGGLVQAGGSLRLSCAASGRTFEGYTMGWYRQAPGKERELVSAISWSGARTYYADSVKGRFTISRDNAKNTVYLQMNSLKPEDTAVYYCAADRYWISLWYIMGYWGQGTQVTVSS,high polyreactivity
11,QVQLVESGGGLVQAGGSLRLSCAASGRTFEHYAMVWYRPAPGKERELVAAITWSGVSTYYADSVKGRFTISRDNAKNTVYLQMNSLKPEDTAVYYCAAKWLGYGFDYWGQGTQVTVSS,low polyreactivity
12,QVQLVESGGGLVQAGGSLRLSCAASGRTFERNAMGWYRQAPGKERELVAAITSGDGTSYADSVKGRFTISRDNAKNTVYLQMNSLKPEDTAVYYCAVSKGVFLVRGYAYHVGYWGQGTQVTVSS,low polyreactivity
13,QVQLVESGGGLVQAGGSLRLSCAASGRTFERNAMGWYRQAPGKERQLVAAITSGDGTSYADSVKGRFTISRDNAKNTVYLQMNSLKPEDTAVYYCAAPFVGSVVIRRWDEYDYWGQGTQVTVSS,low polyreactivity
14,QVQLVESGGGLVQAGGSLRLSCAASGRTFERYAMGWYRQAPGKERELVAAISSIGGSTYYADSVKGRFTISRDNAKNTVYLQMNSLKPEDTAVYYCADSVFYYASRYDYWGQGTKVTVSS,low polyreactivity
15,QVQLVESGGGLVQAGGSLRLSCAASGRTFESYAMGWYRQAPGKERELVAAITSTDDRTYYADSVKGRFTISRDNAKNTVYLQMNSLKPEDTAVYYCAVESRRDDFEYDYWGQGTQVTVSS,low polyreactivity
16,QVQLVESGGGLVQAGGSLRLSCAASGRTFEYYAMGWYRQAPGKERELVAAITSGGITYYADSVKGRFTISRDNAKYTVYLQMNSLKPEDTAVYYCNARHRYYRYGYWGQGTQVTVSS,high polyreactivity
17,QVQLVESGGGLVQAGGSLRLSCAASGRTFEYYAMGWYRQAPGKERELVASITSSGVRTYYADSVKGRFTISRDNAKNTVYLQMNSLKPEDTAVYYCAKRLVYSRWGDYWGQGTQVTVSS,high polyreactivity
18,QVQLVESGGGLVQAGGSLRLSCAASGRTFFGYAMGWYRQAPGKERELVAAITTSGGSTYYADSVKGRFTISRDNAKNTVYLQMNSLKPEDTAVYYCAADSTNYWLGFYYWGQGTQVTVSS,low polyreactivity
19,QVQLVESGGGLVQAGGSLRLSCAASGRTFFHNPMGWYRQAPGKERELVAAISSGGGTYADSVKGRFTISRDNAKNTVYLQINSLKPEDTAVYYCAATLYNTEDDYWGQGTQVTVSS,low polyreactivity
20,QVQLVESGGGLVQAGGSLRLSCAASGRTFFIYAMGWYRPAPGKERELVAAITYGGGRTFYADSVKGRFTISRDNAKYTVYLQMNSLKPEDTAVYYCAATVRGKRSTYDYWGQGTQVTVSS,high polyreactivity
21,QVQLVESGGGLVQAGGSLRLSCAASGRTFFKNAMGWYRQAPGKERELVAAITSSGGTTYYADSVKGRFTISRDNAKNTVYLQMNSLKPEDTAVYYCATRTYPIRYGYGYWGQGTQVTVSS,high polyreactivity
22,QVQLVESGGGLVQAGGSLRLSCAASGRTFFKYVMGWSRQAPGKERELVAAITWNGGRTNYADSVKGRFTISRDYAKNTVYLQMNSLKPEDTAVYYCAAVTSVNPSVFNGNYWGQGTQVTVSS,low polyreactivity

row,Sequence,polyreactivity (PSR sort gate)
1,QVQLVESGGGLVQAGGSLRLSCAASGRTFFLYALGWYRQATGKERELFARISTSGGGTYYADSVKGRFTISRDHAKNTVYLQMISLKPEDTAVYYCAARTDRGQRRAGGYDFWGQGTQVTVSS,high polyreactivity
2,QVQLVESGGGLVQAGGSLRLSCAASGRTFFPNAMGWYRQAPGKERELVASITSRGGGTYYADSVKGRFTISRDYAKNTVYLQMNSLKPEDTAVYYCADDRYYFSPGYNWWSEGYDYWGQGTQVTVSS,low polyreactivity
3,QVQLVESGGGLVQAGGSLRLSCAASGRTFFPYAMGWYRQAPGKEREFVAAITWSGGSTTYADSVKGRFTISRDNAKNTVYLQMTSLKPEDTAVYYCNDGRRRSYSYDYWGQGTQVTVSS,low polyreactivity
4,QVQLVESGGGLVQAGGSLRLSCAASGRTFFPYGMGWYRQAPGKERELVASISYSGGITYYADSVKGRFTISRDNAKNTVYLQMNSLKPEDTAVYYCSVRTIWRFRYDYWGQGTQVTVSS,high polyreactivity
5,QVQLVESGGGLVQAGGSLRLSCAASGRTFFQYGMGWYRQAPGKERELVASITRSGGRTNYADSVKGRFTISRDNAKNTVYLQMNSLKPEDTAVYYCAAYYYGSAAYGYGYNYWGQGTQVTVSS,high polyreactivity
6,QVQLVESGGGLVQAGGSLRLSCAASGRTFFRNAMGWYRQAPGKERELVAAISKRGGSTRYADSVKGRFTISRDNAKNTAYLQMNSLQPEDTAVYYCAADSRLEYSHATLYYCGQGTQVTVSS,high polyreactivity
7,QVQLVESGGGLVQAGGSLRLSCAASGRTFFRYGMGWYRQAPGKEREFVAAITRSGTTTYYADSVKGRFTISRDNAKNTVYLQMNSLKPEDTAVYYCAAQRAARVDGKSDYWGQGTQVTVTS,low polyreactivity
8,QVQLVESGGGLVQAGGSLRLSCAASGRTFFSNAMGWYRQAPGKERELVAVIDSGGSTYYADSVKGRFTISRDNAKNTVYLQMNSLKPEDTAVYYCAADTGTAPSEDYLGQGTQVTVSS,low polyreactivity
9,QVQLVESGGGLVQAGGSLRLSCAASGRTFFSYTMGWYRQAPGKEREFVAAITTSGGYTHYADSVKGRFTISRDNAKNTVYLQMNSLIPEDTAVYYCAAVGRYPYKGYNYWGQGTQVTVSS,high polyreactivity
10,QVQLVESGGGLVQAGGSLRLSCAASGRTFFVNAMGWYRQAPGKERELVAGITRTGGTTYYADSVKGRFTISRDNAKNTVYLQMNSLKPEDTAVYYCAATPGGTDLGGGYYGFDYWGQGTQVTVSS,low polyreactivity
11,QVQLVESGGGLVQAGGSLRLSCAASGRTFFVYDMGWYRQAPGKERELVAAISRGGSTNYADSVKGRFTISRDNAKNTVYLQMNSLKPEDTAVYYCAASVQYRRLKKFYYWGQGTQVTVSS,high polyreactivity
12,QVQLVESGGGLVQAGGSLRLSCAASGRTFFWYAMGWYRQAPGKERELVADISSSGGSTYYADSVKGRFTISRDNAKNTVYLQMNSLKPEDTAVYYCAALSPWWRGGYDYWGQGTQVTVSS,high polyreactivity
13,QVQLVESGGGLVQAGGSLRLSCAASGRTFFWYAMGWYRQAPGKERELVAGISRGGRTNYADSVKGRFTISRDNAKNTVYLQMNSLKPEDTAVYYCAADSWLTYFLGTSEHYYWGQGTQVTVSS,high polyreactivity
14,QVQLVESGGGLVQAGGSLRLSCAASGRTFFWYVMGWYRQAPGKERELVATISYGGITYYADSVKGRFTISRDNAKNTVYLQMNSLKPEETALYYCAAKPSRSLYYYWGQGTQVTVSS,high polyreactivity
15,QVQLVESGGGLVQAGGSLRLSCAASGRTFFYNARGWYRQEPGKERELVAAIDWSGDSTYYADSVKGRFTISRDNAKNTVYLQMNSLKPEDTAVYYCAARRKNRRDYDYYYWGQGTQVTVSS,high polyreactivity
16,QVQLVESGGGLVQAGGSLRLSCAASGRTFFYNTMGWYRQAPGKERELVARITRGGSTYYADSVKGRFTISRDNAKNSVYLQMNSLKPEDTAVYYCAAGYWRGYFLYGFDYWGQGTQVTVSS,high polyreactivity
17,QVQLVESGGGLVQAGGSLRLSCAASGRTFGANAMGWYRQAPGKERELVAAINSGDITNYADSVKGRFTISRDNAKNTVYLQMNSLKPEDTAVYYCAAGSYYTYSGYNYWGQGTQVTVSS,low polyreactivity
18,QVQLVESGGGLVQAGGSLRLSCAASGRTFGAYAMGCYRQAPGKERELVAAISIGGRTYYADSVKGRFTISRDKAKNTVYLQMNILKPEDTAVYYCNKVRSPWYDSWGQGTQVTVSS,high polyreactivity
19,QVQLVESGGGLVQAGGSLRLSCAASGRTFGAYAMGWYRQAPGKERELVAAISSSGGSTYYADSLKGRFTISRDNAKNTVYLQMNSLKPEDTAVYYCAKGWHRGVGFGYWGQGTQVTVSS,high polyreactivity
20,QVQLVESGGGLVQAGGSLRLSCAASGRTFGCYAMGWYRQAPGKERELVASITQRGGRTYYADSVKGRFTISRDNAKNTVYLQMNSLKPEDTAVYYCAAKTSPGMYYWVQGTQVTVSS,high polyreactivity
21,QVQLVESGGGLVQAGGSLRLSCAASGRTFGDYAMGWYRQAPGKERELVAAITIGGSTYYADSVKGRFTISRDNAKNTVYLQMNSLKPEDTAVYYCAATTYSIPSRYDSWGQGTQVNVSS,low polyreactivity
